Test results: PMC9352680, “A comprehensive thermodynamic model for RNA binding by the Saccharomyces cerevisiae Pumilio protein PUF4”
Changes are numbered by the printed parent chain. Numbers in names are those of the source.

B1: Ic_S1_P5E.1_K5.1_C5.1_H5.1_A5.1_[T6A]_F5.1_[T8C]_T5.1 (ssRNA)
RNA: UCUCUUUGUAUAACUAUCUCUU
B2: Id_ii_S2_P5E.2_K5.1_C5.2_[C-2G]_H5.1_A5.1_F5.1_T5.2_[A12C] (ssRNA)
RNA: UUUGAUUAAUAUGAUAUCGUUCUUUCUGUUGUAUUAUUAUCUUCUUUCUCGAUAUCAUAUUAAUCUUU
B3: Id_ii_S2_P5E.2_K5.1_C5.2_[C-2T]_[T-1A]_H5.1_A5.1_F5.1_T5.2_[T11G]_[A12T] (ssRNA)
RNA: B2 RNA with G28U, U29A, U40G, C41U
B4: Id_ii_S2_P5E.2_K5.1_C5.2_[C-2A]_[T-1C]_H5.1_A5.1_F5.1_T5.2_[A12T] (ssRNA)
RNA: B2 RNA with G28A, U29C, C41U
B5: Id_ii_S2_P5E.2_K5.1_C5.2_[T-1G]_H5.1_A5.1_F5.1_T5.2_[T11A]_[A12T] (ssRNA)
RNA: B2 RNA with G28C, U29G, U40A, C41U
B6: Id_ii_S2_P5E.2_K5.1_C5.2_[T-1G]_H5.1_A5.1_F5.1_T5.2_[T11G]_[A12C] (ssRNA)
RNA: B2 RNA with G28C, U29G, U40G
B7: Id_ii_S2_P5E.2_K5.1_C5.2_[C-2A]_H5.1_A5.1_F5.1_T5.2_[T11A]_[A12C] (ssRNA)
RNA: B2 RNA with G28A, U40A
B8: Id_ii_S2_P5E.2_K5.1_C5.2_[C-2T]_H5.1_A5.1_F5.1_T5.2_[T11A]_[A12T] (ssRNA)
RNA: B2 RNA with G28U, U40A, C41U
B9: Id_ii_S2_P5E.2_K5.1_C5.2_[C-2T]_[T-1G]_H5.1_A5.1_F5.1_T5.2_[T11A]_[A12T] (ssRNA)
RNA: B2 RNA with G28U, U29G, U40A, C41U
B10: Id_ii_S2_P5E.2_K5.1_C5.2_[C-2T]_H5.1_A5.1_F5.1_T5.2_[A12T] (ssRNA)
RNA: B2 RNA with G28U, C41U
B11: Id_ii_S2_P5E.2_K5.1_C5.2_[C-2A]_H5.1_A5.1_F5.1_T5.2_[A12C] (ssRNA)
RNA: B2 RNA with G28A
B12: Id_ii_S2_P5E.2_K5.1_C5.2_[T-1C]_H5.1_A5.1_F5.1_T5.2_[T11A]_[A12C] (ssRNA)
RNA: B2 RNA with G28C, U29C, U40A
B13: Id_ii_S2_P5E.2_K5.1_C5.2_[C-2T]_[T-1C]_H5.1_A5.1_F5.1_T5.2_[T11A]_[A12C] (ssRNA)
RNA: B2 RNA with G28U, U29C, U40A
B14: Id_ii_S2_P5E.2_K5.1_C5.2_[C-2T]_H5.1_A5.1_F5.1_T5.2_[A12C] (ssRNA)
RNA: B2 RNA with G28U
B15: Id_ii_S2_P5E.2_K5.1_C5.2_[C-2A]_[T-1A]_H5.1_A5.1_F5.1_T5.2_[T11A]_[A12C] (ssRNA)
RNA: B2 RNA with G28A, U29A, U40A
B16: Id_ii_S2_P5E.2_K5.1_C5.2_[C-2A]_[T-1C]_H5.1_A5.1_F5.1_T5.2_[T11A]_[A12C] (ssRNA)
RNA: B2 RNA with G28A, U29C, U40A
B17: Id_ii_S2_P5E.2_K5.1_C5.2_[C-2T]_[T-1C]_H5.1_A5.1_F5.1_T5.2_[A12G] (ssRNA)
RNA: B2 RNA with G28U, U29C, C41G
B18: Id_ii_S2_P5E.2_K5.1_C5.2_[C-2A]_[T-1C]_H5.1_A5.1_F5.1_T5.2_[T11A]_[A12T] (ssRNA)
RNA: B2 RNA with G28A, U29C, U40A, C41U
B19: Id_ii_S2_P5E.2_K5.1_C5.2_[C-2A]_[T-1G]_H5.1_A5.1_F5.1_T5.2_[T11A]_[A12T] (ssRNA)
RNA: B2 RNA with G28A, U29G, U40A, C41U
B20: Id_ii_S2_P5E.2_K5.1_C5.2_[T-1G]_H5.1_A5.1_F5.1_T5.2_[A12T] (ssRNA)
RNA: B2 RNA with G28C, U29G, C41U
B21: Id_ii_S2_P5E.2_K5.1_C5.2_[C-2G]_H5.1_A5.1_F5.1_T5.2_[A12T] (ssRNA)
RNA: B2 RNA with C41U
B22: Id_ii_S2_P5E.2_K5.1_C5.2_[T-1G]_H5.1_A5.1_F5.1_T5.2_[T11G]_[A12T] (ssRNA)
RNA: B2 RNA with G28C, U29G, U40G, C41U
B23: Id_ii_S2_P5E.2_K5.1_C5.2_[T-1G]_H5.1_A5.1_F5.1_T5.2_[T11A] (ssRNA)
RNA: B2 RNA with G28C, U29G, U40A, C41A
B24: Id_ii_S2_P5E.2_K5.1_C5.2_[C-2T]_[T-1G]_H5.1_A5.1_F5.1_T5.2_[A12T] (ssRNA)
RNA: B2 RNA with G28U, U29G, C41U
B25: Id_ii_S2_P5E.2_K5.1_C5.2_[C-2T]_[T-1A]_H5.1_A5.1_F5.1_T5.2_[A12C] (ssRNA)
RNA: B2 RNA with G28U, U29A
B26: Id_ii_S2_P5E.2_K5.1_C5.2_[C-2A]_[T-1C]_H5.1_A5.1_F5.1_T5.2_[A12G] (ssRNA)
RNA: B2 RNA with G28A, U29C, C41G
B27: Id_ii_S2_P5E.2_K5.1_C5.2_[C-2T]_[T-1C]_H5.1_A5.1_F5.1_T5.2_[A12C] (ssRNA)
RNA: B2 RNA with G28U, U29C
B28: Id_ii_S2_P5E.2_K5.1_C5.2_[C-2T]_[T-1G]_H5.1_A5.1_F5.1_T5.2_[T11G]_[A12C] (ssRNA)
RNA: B2 RNA with G28U, U29G, U40G
B29: Id_ii_S2_P5E.2_K5.1_C5.2_[C-2A]_[T-1A]_H5.1_A5.1_F5.1_T5.2_[A12C] (ssRNA)
RNA: B2 RNA with G28A, U29A
B30: Id_ii_S2_P5E.2_K5.1_C5.2_[T-1G]_H5.1_A5.1_F5.1_T5.2_[T11A]_[A12C] (ssRNA)
RNA: B2 RNA with G28C, U29G, U40A
B31: Id_ii_S2_P5E.2_K5.1_C5.2_[T-1C]_H5.1_A5.1_F5.1_T5.2_[T11A]_[A12G] (ssRNA)
RNA: B2 RNA with G28C, U29C, U40A, C41G
B32: Id_ii_S2_P5E.2_K5.1_C5.2_[C-2T]_H5.1_A5.1_F5.1_T5.2_[T11G]_[A12T] (ssRNA)
RNA: B2 RNA with G28U, U40G, C41U
B33: Id_ii_S2_P5E.2_K5.1_C5.2_[C-2T]_[T-1G]_H5.1_A5.1_F5.1_T5.2_[A12C] (ssRNA)
RNA: B2 RNA with G28U, U29G
B34: Id_ii_S2_P5E.2_K5.1_C5.2_[C-2A]_[T-1C]_H5.1_A5.1_F5.1_T5.2_[A12C] (ssRNA)
RNA: B2 RNA with G28A, U29C
B35: Id_ii_S2_P5E.2_K5.1_C5.2_[C-2T]_[T-1A]_H5.1_A5.1_F5.1_T5.2_[T11A]_[A12C] (ssRNA)
RNA: B2 RNA with G28U, U29A, U40A
B36: Id_ii_S2_P5E.2_K5.1_C5.2_[C-2T]_H5.1_A5.1_F5.1_T5.2_[T11A] (ssRNA)
RNA: B2 RNA with G28U, U40A, C41A
B37: Id_ii_S2_P5E.2_K5.1_C5.2_[T-1C]_H5.1_A5.1_F5.1_T5.2_[T11A]_[A12T] (ssRNA)
RNA: B2 RNA with G28C, U29C, U40A, C41U
B38: Id_ii_S2_P5E.2_K5.1_C5.2_[C-2T]_[T-1C]_H5.1_A5.1_F5.1_T5.2_[T11A]_[A12G] (ssRNA)
RNA: B2 RNA with G28U, U29C, U40A, C41G
B39: Id_ii_S2_P5E.2_K5.1_C5.2_[C-2T]_[T-1A]_H5.1_A5.1_F5.1_T5.2_[T11A] (ssRNA)
RNA: B2 RNA with G28U, U29A, U40A, C41A
B40: Id_ii_S2_P5E.2_K5.1_C5.2_[C-2T]_[T-1G]_H5.1_A5.1_F5.1_T5.2_[T11A] (ssRNA)
RNA: B2 RNA with G28U, U29G, U40A, C41A
B41: Id_ii_S2_P5E.2_K5.1_C5.2_[C-2T]_[T-1A]_H5.1_A5.1_F5.1_T5.2_[A12T] (ssRNA)
RNA: B2 RNA with G28U, U29A, C41U
B42: Id_ii_S2_P5E.2_K5.1_C5.2_[C-2A]_H5.1_A5.1_F5.1_T5.2_[A12T] (ssRNA)
RNA: B2 RNA with G28A, C41U
B43: Id_ii_S2_P5E.2_K5.1_C5.2_[C-2A]_H5.1_A5.1_F5.1_T5.2_[A12G] (ssRNA)
RNA: B2 RNA with G28A, C41G
B44: Id_ii_S2_P5E.2_K5.1_C5.2_[C-2A]_[T-1A]_H5.1_A5.1_F5.1_T5.2_[T11A]_[A12T] (ssRNA)
RNA: B2 RNA with G28A, U29A, U40A, C41U
B45: Id_ii_S2_P5E.2_K5.1_C5.2_[T-1G]_H5.1_A5.1_F5.1_T5.2_[A12C] (ssRNA)
RNA: B2 RNA with G28C, U29G
B46: Id_ii_S2_P5E.2_K5.1_C5.2_[C-2T]_[T-1C]_H5.1_A5.1_F5.1_T5.2_[A12T] (ssRNA)
RNA: B2 RNA with G28U, U29C, C41U
B47: Id_ii_S2_P5E.2_K5.1_C5.2_[C-2T]_[T-1C]_H5.1_A5.1_F5.1_T5.2_[T11A] (ssRNA)
RNA: B2 RNA with G28U, U29C, U40A, C41A
B48: Id_ii_S2_P5E.2_K5.1_C5.2_[C-2A]_H5.1_A5.1_F5.1_T5.2_[T11A]_[A12T] (ssRNA)
RNA: B2 RNA with G28A, U40A, C41U
B49: Ib_S1_P5E.1_K5.1_C5.1_H5.1_A5.1_[T6C]_F5.1_[T8G]_T5.1 (ssRNA)
RNA: UCUCUUUGUAUCAGUAUCUCUU
B50: Ia_S1_P5E.1_K5.1_C5.1_H5.1_[A4G]_A5.1_F5.1_T5.1 (ssRNA)
RNA: UCUCUUUGUGUUAUUAUCUCUU
B51: Ic_S1_P5E.1_K5.1_C5.1_H5.1_A5.1_[T6A]_F5.1_[T8G]_T5.1 (ssRNA)
RNA: UCUCUUUGUAUAAGUAUCUCUU
B52: Ib_S1_P5E.1_K5.1_C5.1_H5.1_A5.1_[T6G]_F5.1_[T8C]_T5.1 (ssRNA)
RNA: UCUCUUUGUAUGACUAUCUCUU
B53: Ib_S1_P5E.1_K5.1_C5.1_H5.1_A5.1_[T6C]_F5.1_[T8C]_T5.1 (ssRNA)
RNA: UCUCUUUGUAUCACUAUCUCUU

Target: T1, PUF4 RNA-binding domain (Saccharomyces cerevisiae, UniProt P25339 537-888)
T1 sequence: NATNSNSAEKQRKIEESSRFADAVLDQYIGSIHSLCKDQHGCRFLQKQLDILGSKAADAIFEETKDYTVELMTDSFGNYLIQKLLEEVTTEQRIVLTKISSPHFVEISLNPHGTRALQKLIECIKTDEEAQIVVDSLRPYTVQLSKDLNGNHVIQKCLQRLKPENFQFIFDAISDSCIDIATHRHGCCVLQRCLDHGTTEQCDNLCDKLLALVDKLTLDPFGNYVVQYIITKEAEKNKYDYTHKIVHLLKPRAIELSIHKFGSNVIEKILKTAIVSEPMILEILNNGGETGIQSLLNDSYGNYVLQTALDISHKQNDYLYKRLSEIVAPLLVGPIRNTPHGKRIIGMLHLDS
Experiment: Mg; RNA-MaP; 20 mM Na-HEPES pH 7.4, 30 mM KOAc, 0.75 mM MgCl2, 0.1% Tween-20, 5% glycerol, 0.1 mg/mL BSA, 2 mM DTT; 25 C; 0.0125-409.6 nM protein
Conditions: tags: N-His6-TEV cleaved; C-SNAP kept, Cy3B-labelled; label: tethered on chip by stalled RNA polymerase

Row | Binder | Kd [nM]
1 | B1 | 8.58
2 | B2 | 18.8
3 | B3 | 4.78
4 | B4 | 2.49
5 | B5 | 2.03
6 | B6 | 2.28
7 | B7 | 6.07
8 | B8 | 3.17
9 | B9 | 1.41
10 | B10 | 1.44
11 | B11 | 3.2
12 | B12 | 3.51
13 | B13 | 4.08
14 | B14 | 1.86
15 | B15 | 19
16 | B16 | 5.62
17 | B17 | 3.04
18 | B18 | 3.61
19 | B19 | 7.45
20 | B20 | 1.54
21 | B21 | 2.47
22 | B22 | 1.86
23 | B23 | 3.97
24 | B24 | 1.42
25 | B25 | 4.16
26 | B26 | 31.6
27 | B27 | 2.98

Row | Binder | Kd [nM]
28 | B28 | 2.9
29 | B29 | 9.68
30 | B30 | 6.1
31 | B31 | 9.77
32 | B32 | 3.67
33 | B33 | 1.84
34 | B34 | 2.94
35 | B35 | 8.24
36 | B36 | 5.96
37 | B37 | 1.44
38 | B38 | 51
39 | B39 | 12.2
40 | B40 | 1.72
41 | B41 | 2.85
42 | B42 | 2.99
43 | B43 | 5.06
44 | B44 | 20.4
45 | B45 | 2.68
46 | B46 | 1.5
47 | B47 | 4.24
48 | B48 | 5.79
49 | B49 | 27.9
50 | B50 | 30.7
51 | B51 | 54
52 | B52 | 31.2
53 | B53 | 18
